According to patent US20150191546A1 (University of Texas, published 2015):

B1: 8F4 mouse monoclonal antibody (IgG2a-kappa, anti-PR1/HLA-A*0201) (antibody, V domains shown)
VH: EVQLVESGGDLVKPGGSLKLSCAASGFTFSGYGMSWVRQTPDKRLEWVATISSGGSYTYYPDSVKGRFTISRDNAKNTLYLQMSSLKSEDTAMYYCARHEGGYYGSSPAWFVYWGQGTLVTLSA
VL: DIVMTQSHKFMSTSVGDRVSITCKASQDVSTAVAWYQQKPGQSPKLLIYSTSYRYTGVPDRFTGSGSGTVFTFTINSVQAEDLAVYYCQQHFITPPTFGGGTKLEIK
modifications: In the flow cytometry and confocal assays the antibody carried an Alexa Fluor 647 label; the letters do not carry it.
notes: Mouse IgG2a-kappa from hybridoma; Used with Alexa-647 label in flow cytometry and confocal assays; also called mouse 8F4; 8F4-4
B2: Ch8F4 chimeric 8F4 IgG1/kappa antibody (antibody, V domains shown)
VH: B1 VH
VL: DIVMTQSHKFMSTSVGDRVSITCKASQDVSTAVAWYQQKPGQSPKLLIYSTSYRYTGVPDRFTGSGSGTVFTFTINSVQAEDLAVYYCQQHFITPPTFGGGTKLEIKR
notes: Mouse 8F4 VH/VL on human gamma-1 and kappa constant regions
B3: Hu8F4-2 humanized 8F4 IgG1/kappa antibody (Hu8F4 VH and VL2) (antibody)
heavy: not shown
light: DIQMTQSPSSLSASVGDRVTITCKASQDVSTAVAWYQQKPGKAPKLLIYSTSYRYTGVPSRFSGSGSGTDFTFTISSLQPEDIATYYCQQHFITPPTFGGGTKVEIKRTVAAPSVFIFPPSDEQLKSGTASVVCLLNNFYPREAKVQWKVDNALQSGNSQESVTEQDSKDSTYSLSSTLTLSKADYEKHKVYACEVTHQGLSSPVTKSFNRGEC
notes: VL2 has Asp instead of Val at position 70 of VL1; also called Hu2-8F4; Hu2
B4: Hu8F4-1 humanized 8F4 IgG1/kappa antibody (Hu8F4 VH and VL1) (antibody, V domains shown)
VH: EVQLVESGGGLVQPGGSLRLSCAASGFTFSGYGMSWVRQAPGKGLEWVATISSGGSYTYYPDSVKGRFTISRDNAKNSLYLQMNSLRAEDTAVYYCARHEGGYYGSSPAWFVYWGQGTMVTVSS
VL: DIQMTQSPSSLSASVGDRVTITCKASQDVSTAVAWYQQKPGKAPKLLIYSTSYRYTGVPSRFSGSGSGTVFTFTISSLQPEDIATYYCQQHFITPPTFGGGTKVEIKR
notes: Human IgG1/kappa; also called Hu1-8F4; Hu1
B5: Hu8F4-2-AA humanized 8F4 IgG1-AA/kappa antibody (antibody)
heavy: not shown
light: B3 light
notes: Hu8F4 VH and VL2 on human IgG1 with Leu234Ala and Leu235Ala (Eu numbering); Signal peptide may be included

Key:
[1] = biological target: T1, PR1/HLA-A*0201 on the cell surface (human); assay: flow cytometry, 8F4 staining of MDA-MB-231 cells after 24 h with NE
T1 construct: also called PR1-pulsed T2 cells; PR1/HLA-A2 on HLA-A2+ AML blasts
Description: (§1) Mean 6 SEM fold increase of the MFI of PR1/HLA-A2 versus unpulsed cells is shown from duplicate experiments. ANOVA followed by Tukey test was performed using Prism 5.0 software (*p=0.01, **p, 0.0001).

[2] = biological target: T1, PR1/HLA-A*0201 on the cell surface; assay: flow cytometry, 8F4 staining of MDA-MB-231 cells after 24 h with P3
Description: as §1

[3] = biological target: T2, recombinant PR1/HLA-A*0201 monomer (human); assay: SPR (Biacore), 8F4 immobilized/captured, soluble PR1/HLA-A*0201 as analyte
T2 construct: Folded recombinant monomer; also called PR1/HLA-A2; PR-1/HLA-A2

[4] = biological target: T2, recombinant PR1/HLA-A*0201 monomer; assay: SPR (BIAcore 3000), antibody captured on anti-mouse surface, peptide/HLA-A2 as analyte, 25 C; inset table, column KD (the text and the box under the plot round it to 9.9 nM)
Description: The test antibodies were captured onto anti-mouse antibody-coated surfaces. The analyte, peptide/HLA-A2, was diluted to 100 nM and tested in duplicate for binding to the antibody-coated surfaces. The analysis was performed at 25 C using PBS, 0.005% Tween-20, 0.1 mg/ml BSA, pH 7.4 as the running buffer.

[5] = biological target: T2, recombinant PR1/HLA-A*0201 monomer; assay: ELISA, biotinylated PR1/HLA-A2 on streptavidin, anti-human kappa HRP
Description: An ELISA plate was first coated with 100 μl/well of 5 μg/ml streptavidin (Jackson ImmunoResearch, West Grove, Pa.) in PBS. After washing wells with Wash Buffer (PBS containing 0.05% Tween 20) and blocking with Block Buffer, 50 μl/well of 2 μg/ml biotinylated PR1/HLA-A2, which had been provided by Dr. Molldrem, was added. After 30 min incubation at room temperature, the ELISA plate was washed with Wash Buffer. […] After incubating the ELISA plate for 1 hr at room temperature and washing with Wash Buffer, bound antibodies were detected using 100 μl/well of 1/2,000-diluted HRP-conjugated goat anti-human kappa chain polyclonal antibody. After incubating for 30 min at room temperature and washing with Wash Buffer, color development was performed by adding 100 μl/well of ABTS substrate. Color development was stopped by adding 100 μl/well of 2% oxalic acid. Absorbance was read at 405 nm.

[6] = biological target: T2, recombinant PR1/HLA-A*0201 monomer; assay: ELISA on PR1/HLA-A2 monomer-coated plate, anti-human detection [panel B]
Excerpt: (§2) The inventors used recombinant PR1/HLA-A2 monomer-coated plates to capture the antibody, and anti-human antibodies were used in a colorimetric assay to determine the bound fraction by optical density (OD).

[7] = biological target: T2, recombinant PR1/HLA-A*0201 monomer; assay: ELISA on recombinant PR1/HLA-A2 monomer-coated plates; Hu8F4-2 (Hu2)
Excerpt: as §2

[8] = biological target: T2, recombinant PR1/HLA-A*0201 monomer; assay: ELISA on recombinant PR1/HLA-A2 monomer-coated plates; Hu8F4-1 (Hu1)
Excerpt: as §2

| EC50 [5] | EC50 (read off the curve) [6] | further results | Binder |
| --- | --- | --- | --- |
| – | – | fold increase in PR1/HLA-A2 (8F4 MFI) versus unpulsed cells [1]: 2.5 fold; fold increase in PR1/HLA-A2 (8F4 MFI) versus unpulsed cells [2]: 3 fold; Kd [3]: 9.9 nM; Kd [4]: 9.85 nM | B1 |
| 0.054 µg/mL | ~0.008 µg/mL | – | B2 |
| 0.07 µg/mL | ~0.008 µg/mL | Kd [7]: 7.8 nM | B3 |
| 0.05 µg/mL | ~0.008 µg/mL | Kd [8]: 7.7 nM | B4 |
| 0.07 µg/mL | – | – | B5 |
